Reference: PMC9482650, “Quantitative fragmentomics allow affinity mapping of interactomes” (Nature Communications, 2022)

B1: CLDN7, O95471 (peptide)
chain: PKSNSSKEYV
B2: CCL24, O00175 (peptide)
chain: QRYPGNQTTC

target: DLG1_2, Q12959; assay: holdup assay; parameters: key: below the threshold = too weak to quantify, mostly under pKd 3.1 to 4; conditions: plain residues with an end cap or a label only (N-terminal biotin on a linker: ado-ado)
Sequence (Q12959 314-412): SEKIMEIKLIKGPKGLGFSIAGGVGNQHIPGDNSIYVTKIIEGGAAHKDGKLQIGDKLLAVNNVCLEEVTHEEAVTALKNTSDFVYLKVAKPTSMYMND

Row | Binder | pKd
1 | B1 | below the threshold
2 | B2 | below the threshold

target: MAGI2_2, Q86UL8; assay: holdup assay; parameters: key: below the threshold = too weak to quantify, mostly under pKd 3.1 to 4; conditions: plain residues with an end cap or a label only (N-terminal biotin on a linker: ado-ado)
Sequence (Q86UL8 410-522): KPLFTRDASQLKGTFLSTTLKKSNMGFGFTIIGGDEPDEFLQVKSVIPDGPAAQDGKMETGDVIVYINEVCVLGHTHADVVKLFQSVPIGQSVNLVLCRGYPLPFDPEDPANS

Row | Binder | pKd
3 | B1 | below the threshold
4 | B2 | below the threshold

target: SNX27, Q96L92; assay: holdup assay; parameters: key: below the threshold = too weak to quantify, mostly under pKd 3.1 to 4; conditions: plain residues with an end cap or a label only (N-terminal biotin on a linker: ado-ado)

Row | Binder | pKd
5 | B1 | below the threshold
6 | B2 | below the threshold

target: PARD3_3, Q8TEW0; assay: holdup assay; parameters: key: below the threshold = too weak to quantify, mostly under pKd 3.1 to 4; conditions: plain residues with an end cap or a label only (N-terminal biotin on a linker: ado-ado)
Sequence (Q8TEW0 582-685): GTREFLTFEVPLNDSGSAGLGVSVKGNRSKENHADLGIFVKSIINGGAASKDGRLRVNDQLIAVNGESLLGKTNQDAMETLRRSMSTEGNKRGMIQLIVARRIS

Row | Binder | pKd
7 | B1 | below the threshold
8 | B2 | below the threshold

target: T1, ARHGEF11, O15085; assay: holdup assay; parameters: key: below the threshold = too weak to quantify, mostly under pKd 3.1 to 4; conditions: plain residues with an end cap or a label only (N-terminal biotin on a linker: ado-ado)
T1 sequence (O15085 42-136, limits assumed, looked up): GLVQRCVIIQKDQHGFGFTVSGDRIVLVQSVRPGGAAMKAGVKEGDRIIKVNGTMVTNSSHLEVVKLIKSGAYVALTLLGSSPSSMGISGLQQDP

Row | Binder | pKd
9 | B1 | below the threshold
10 | B2 | below the threshold

target: Inadl_2, Q8NI35; assay: holdup assay; parameters: key: below the threshold = too weak to quantify, mostly under pKd 3.1 to 4; conditions: plain residues with an end cap or a label only (N-terminal biotin on a linker: ado-ado)
Sequence (Q8NI35 238-335): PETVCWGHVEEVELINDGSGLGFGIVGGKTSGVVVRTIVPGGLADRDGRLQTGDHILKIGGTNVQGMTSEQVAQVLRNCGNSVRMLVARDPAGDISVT

Row | Binder | pKd
11 | B1 | below the threshold
12 | B2 | below the threshold

target: T2, MPP2, Q14168; assay: holdup assay; parameters: key: below the threshold = too weak to quantify, mostly under pKd 3.1 to 4; conditions: plain residues with an end cap or a label only (N-terminal biotin on a linker: ado-ado)
T2 sequence (Q14168 180-250, limits assumed, looked up): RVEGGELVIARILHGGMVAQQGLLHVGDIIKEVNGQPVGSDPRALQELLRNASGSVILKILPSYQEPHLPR

Row | Binder | pKd
13 | B1 | below the threshold
14 | B2 | below the threshold

target: GIPC2, Q8TF65; assay: holdup assay; parameters: key: below the threshold = too weak to quantify, mostly under pKd 3.1 to 4; conditions: plain residues with an end cap or a label only (N-terminal biotin on a linker: ado-ado)
Sequence (Q8TF65 112-203): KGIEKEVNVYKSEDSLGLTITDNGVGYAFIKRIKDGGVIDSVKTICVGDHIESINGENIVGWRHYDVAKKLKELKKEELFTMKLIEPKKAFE

Row | Binder | pKd
15 | B1 | below the threshold
16 | B2 | below the threshold

target: T3, RADIL, Q96JH8; assay: holdup assay; parameters: key: below the threshold = too weak to quantify, mostly under pKd 3.1 to 4; conditions: plain residues with an end cap or a label only (N-terminal biotin on a linker: ado-ado)
T3 sequence (Q96JH8 971-1071, limits assumed, looked up): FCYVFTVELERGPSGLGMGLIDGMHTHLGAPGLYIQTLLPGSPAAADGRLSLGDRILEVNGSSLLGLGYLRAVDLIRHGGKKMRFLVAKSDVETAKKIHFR

Row | Binder | pKd
17 | B1 | 4.07
18 | B2 | below the threshold

target: LAP2, Q96RT1; assay: holdup assay; parameters: key: below the threshold = too weak to quantify, mostly under pKd 3.1 to 4; conditions: plain residues with an end cap or a label only (N-terminal biotin on a linker: ado-ado)
Sequence (Q96RT1 other isoform, or with tags, fused parts or gaps): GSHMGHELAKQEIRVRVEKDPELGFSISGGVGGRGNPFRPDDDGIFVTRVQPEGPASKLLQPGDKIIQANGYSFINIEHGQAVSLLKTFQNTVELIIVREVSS

Row | Binder | pKd
19 | B1 | below the threshold
20 | B2 | below the threshold

target: T4, LNX2_2, Q8N448; assay: holdup assay; parameters: key: below the threshold = too weak to quantify, mostly under pKd 3.1 to 4; conditions: plain residues with an end cap or a label only (N-terminal biotin on a linker: ado-ado)
T4 sequence (Q8N448 334-432, limits assumed, looked up): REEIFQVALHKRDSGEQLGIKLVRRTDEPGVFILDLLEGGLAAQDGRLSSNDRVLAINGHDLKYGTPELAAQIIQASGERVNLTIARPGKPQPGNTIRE

Row | Binder | pKd
21 | B1 | below the threshold
22 | B2 | 3.58

target: T5, GRIP1_4, Q9Y3R0; assay: holdup assay; parameters: key: below the threshold = too weak to quantify, mostly under pKd 3.1 to 4; conditions: plain residues with an end cap or a label only (N-terminal biotin on a linker: ado-ado)
T5 sequence (Q9Y3R0 467-571, limits assumed, looked up): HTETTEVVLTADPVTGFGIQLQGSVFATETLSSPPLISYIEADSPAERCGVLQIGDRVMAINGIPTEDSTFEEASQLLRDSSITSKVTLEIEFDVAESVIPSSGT

Row | Binder | pKd
23 | B1 | below the threshold
24 | B2 | below the threshold

target: T6, LNX2_3, Q8N448; assay: holdup assay; parameters: key: below the threshold = too weak to quantify, mostly under pKd 3.1 to 4; conditions: plain residues with an end cap or a label only (N-terminal biotin on a linker: ado-ado)
T6 sequence (Q8N448 463-564, limits assumed, looked up): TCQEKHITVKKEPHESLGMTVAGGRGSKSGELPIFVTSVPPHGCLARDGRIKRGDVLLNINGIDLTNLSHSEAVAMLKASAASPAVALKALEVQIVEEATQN

Row | Binder | pKd
25 | B1 | below the threshold
26 | B2 | below the threshold

target: T7, DLG3_3, Q92796; assay: holdup assay; parameters: key: below the threshold = too weak to quantify, mostly under pKd 3.1 to 4; conditions: plain residues with an end cap or a label only (N-terminal biotin on a linker: ado-ado)
T7 sequence (Q92796 374-475, limits assumed, looked up): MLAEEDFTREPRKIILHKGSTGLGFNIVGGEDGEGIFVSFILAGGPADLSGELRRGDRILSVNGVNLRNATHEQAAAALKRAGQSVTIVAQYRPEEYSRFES

Row | Binder | pKd
27 | B1 | below the threshold
28 | B2 | below the threshold

target: T8, NHERF3_1, Q5T2W1; assay: holdup assay; parameters: key: below the threshold = too weak to quantify, mostly under pKd 3.1 to 4; conditions: plain residues with an end cap or a label only (N-terminal biotin on a linker: ado-ado)
T8 sequence (Q5T2W1 4-100, limits assumed, looked up): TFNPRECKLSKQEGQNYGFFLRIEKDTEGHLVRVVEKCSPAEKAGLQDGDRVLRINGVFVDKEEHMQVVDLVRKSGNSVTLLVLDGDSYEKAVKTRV

Row | Binder | pKd
29 | B1 | below the threshold
30 | B2 | below the threshold

target: GRIP2_5, Q9C0E4; assay: holdup assay; parameters: key: below the threshold = too weak to quantify, mostly under pKd 3.1 to 4; conditions: plain residues with an end cap or a label only (N-terminal biotin on a linker: ado-ado)
Sequence (Q9C0E4 544-642): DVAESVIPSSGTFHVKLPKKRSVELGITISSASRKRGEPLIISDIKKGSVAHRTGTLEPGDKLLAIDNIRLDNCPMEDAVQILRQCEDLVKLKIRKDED

Row | Binder | pKd
31 | B1 | below the threshold
32 | B2 | below the threshold

target: MAST2, Q6P0Q8; assay: holdup assay; parameters: key: below the threshold = too weak to quantify, mostly under pKd 3.1 to 4; conditions: plain residues with an end cap or a label only (N-terminal biotin on a linker: ado-ado)
Sequence (Q6P0Q8 1099-1202): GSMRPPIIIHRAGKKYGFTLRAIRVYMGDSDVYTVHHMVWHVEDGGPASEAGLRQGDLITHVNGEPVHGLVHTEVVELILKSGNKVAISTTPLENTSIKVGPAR

Row | Binder | pKd
33 | B1 | 3.65
34 | B2 | 4.74

target: FRMPD4, Q14CM0; assay: holdup assay; parameters: key: below the threshold = too weak to quantify, mostly under pKd 3.1 to 4; conditions: plain residues with an end cap or a label only (N-terminal biotin on a linker: ado-ado)
Sequence (Q14CM0 67-160): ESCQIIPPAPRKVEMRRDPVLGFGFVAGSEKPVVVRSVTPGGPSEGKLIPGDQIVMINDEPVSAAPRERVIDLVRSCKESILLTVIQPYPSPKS

Row | Binder | pKd
35 | B1 | below the threshold
36 | B2 | below the threshold

target: NOS1, P29475; assay: holdup assay; parameters: key: below the threshold = too weak to quantify, mostly under pKd 3.1 to 4; conditions: plain residues with an end cap or a label only (N-terminal biotin on a linker: ado-ado)
Sequence (P29475 9-101): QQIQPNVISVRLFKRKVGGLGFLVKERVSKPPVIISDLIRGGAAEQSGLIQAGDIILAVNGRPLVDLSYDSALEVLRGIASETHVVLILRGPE

Row | Binder | pKd
37 | B1 | 3.57
38 | B2 | below the threshold

target: T9, LIN7B, Q9HAP6; assay: holdup assay; parameters: key: below the threshold = too weak to quantify, mostly under pKd 3.1 to 4; conditions: plain residues with an end cap or a label only (N-terminal biotin on a linker: ado-ado)
T9 sequence (Q9HAP6 88-185, limits assumed, looked up): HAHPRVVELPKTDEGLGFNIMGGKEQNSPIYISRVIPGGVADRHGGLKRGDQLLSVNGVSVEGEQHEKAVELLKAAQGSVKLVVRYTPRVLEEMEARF

Row | Binder | pKd
39 | B1 | below the threshold
40 | B2 | 3.85

target: IL16_3, Q14005; assay: holdup assay; parameters: key: below the threshold = too weak to quantify, mostly under pKd 3.1 to 4; conditions: plain residues with an end cap or a label only (N-terminal biotin on a linker: ado-ado)
Sequence (Q14005 1107-1207): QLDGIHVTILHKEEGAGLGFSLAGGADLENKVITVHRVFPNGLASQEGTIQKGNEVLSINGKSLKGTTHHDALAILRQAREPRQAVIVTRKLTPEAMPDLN

Row | Binder | pKd
41 | B1 | below the threshold
42 | B2 | below the threshold

target: IL16_4, Q14005; assay: holdup assay; parameters: key: below the threshold = too weak to quantify, mostly under pKd 3.1 to 4; conditions: plain residues with an end cap or a label only (N-terminal biotin on a linker: ado-ado)
Sequence (Q14005 1229-1329): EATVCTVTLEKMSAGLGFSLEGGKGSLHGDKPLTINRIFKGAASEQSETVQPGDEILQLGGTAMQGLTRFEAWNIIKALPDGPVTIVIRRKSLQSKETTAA

Row | Binder | pKd
43 | B1 | below the threshold
44 | B2 | below the threshold

target: T10, DVL3, Q92997; assay: holdup assay; parameters: key: below the threshold = too weak to quantify, mostly under pKd 3.1 to 4; conditions: plain residues with an end cap or a label only (N-terminal biotin on a linker: ado-ado)
T10 sequence (Q92997 244-331, limits assumed, looked up): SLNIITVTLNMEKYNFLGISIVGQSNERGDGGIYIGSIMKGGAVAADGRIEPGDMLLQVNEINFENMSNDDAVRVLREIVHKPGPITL

Row | Binder | pKd
45 | B1 | below the threshold
46 | B2 | below the threshold

target: T11, GRIP1_5, Q9Y3R0; assay: holdup assay; parameters: key: below the threshold = too weak to quantify, mostly under pKd 3.1 to 4; conditions: plain residues with an end cap or a label only (N-terminal biotin on a linker: ado-ado)
T11 sequence (Q9Y3R0 568-668, limits assumed, looked up): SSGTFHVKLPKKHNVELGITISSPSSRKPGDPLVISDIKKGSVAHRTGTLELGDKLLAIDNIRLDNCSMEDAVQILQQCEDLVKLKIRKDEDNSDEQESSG

Row | Binder | pKd
47 | B1 | below the threshold
48 | B2 | below the threshold

target: TJP2_1, Q9UDY2; assay: holdup assay; parameters: key: below the threshold = too weak to quantify, mostly under pKd 3.1 to 4; conditions: plain residues with an end cap or a label only (N-terminal biotin on a linker: ado-ado)
Sequence (Q9UDY2 24-128): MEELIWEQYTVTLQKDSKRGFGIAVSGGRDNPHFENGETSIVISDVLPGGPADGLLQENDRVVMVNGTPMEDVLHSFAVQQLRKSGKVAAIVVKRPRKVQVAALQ

Row | Binder | pKd
49 | B1 | 4.28
50 | B2 | below the threshold

target: T12, TIAM2, Q8IVF5; assay: holdup assay; parameters: key: below the threshold = too weak to quantify, mostly under pKd 3.1 to 4; conditions: plain residues with an end cap or a label only (N-terminal biotin on a linker: ado-ado)
T12 sequence (Q8IVF5 885-986, limits assumed, looked up): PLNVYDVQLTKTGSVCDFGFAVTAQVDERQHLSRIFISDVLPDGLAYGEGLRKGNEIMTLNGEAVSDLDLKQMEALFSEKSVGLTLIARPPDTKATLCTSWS

Row | Binder | pKd
51 | B1 | below the threshold
52 | B2 | 4.09
